No end group written: not given here.
Tests used:
[1] = target: human serum albumin (HSA) (Homo sapiens, UniProt P02768); assay: SPR spectroscopy, HBD binding to immobilized human serum albumin; settings: in terms of absolute response and kinetic shape of binding
[2] = test system: immobilized P. gingivalis hemagglutinin B (HagB); settings: ref [2]; cited from earlier work
[3] = test system: immobilized adhesins from the periodontal pathogen Porphyromonas gingivalis; settings: ref [2], [5], [18]; cited from earlier work
[4] = target: Bla g2 from the German cockroach (Blattella germanica) (Blattella germanica); assay: SPR

In the case of “HBD1: human β-defensin used as a control β-defensin; purchased from PeproTech, Inc. (DHYNCVSSGGQCLYSACPIFTKIQGTCYRGKAKCCK; ends and bridges not checked; cysteine pairing not given here)”, the “binding to HSA compared with Bla g2 (in words)” value [1] is reported as “bound to immobilized HSA similar to Bla g2”.

In the case of histatin 5, the “binding to immobilized HagB (in words)” value [2] is listed as “bind specifically” and the “binding to immobilized adhesins from P. gingivalis (in words)” value [3] is listed as “specifically bind”.

In the case of GIINTLQKYYCRVRGGRCAVLSCLPKEEQIGKCSTRGRKCCRRKK (ends and bridges not checked; cysteine pairing not given here) [Human β-defensin 3], the Kd [4] is reported as 5.9 µM.

From article PMC3992933 (Peptides, 2014)
